Reference: patent US20110135573A1, “METALLOPROTEINASE 9 AND METALLOPROTEINASE 2 BINDING PROTEINS” (DYAX CORP., priority 2009, published 2011)

Target: T1, mouse MMP-2 (Mus musculus, UniProt P33434)
T1 construct: purchased R&D Systems 924-MP-010
Test: Enzyme inhibition assay (single point inhibition, IC50/Ki,app), substrate M-2350
Assay type: biochemical
Conditions: Table 10
Procedure: 343 unique sFabs from the anti-MMP-9/-2 M237-D02 affinity maturation campaign were discovered by phage display, produced in small scale (6 mL cultures in deep 24-well plates) and screened to select inhibitors with sub-nanomolar potency against the human enzymes and at least single-digit nanomolar potency toward the mouse orthologues. […] Isolates which appeared potent against both human and mouse MMP-2 were then subjected to IC50 analysis against hMMP-9. Sub-nanomolar inhibitors of hMMP-9 were further tested by IC50 analysis against mMMP-9 and h/m MMP-2, if sufficient small-scale sFab material was available. Thirteen potential h/m MMP-9/-2 sFab inhibitors were then produced in medium scale (250 mL cultures in flasks) and retested for h/m MMP-9 and h/m MMP-2 inhibition. Five potential lead candidates were reformatted as IgGs and retested in enzyme inhibition assays.
Human MMP-9 (Biomol #SE-244), mouse MMP-9 (R&D Systems #909-MM-010), human MMP-2 (Biomol #SE-237) and mouse MMP-2 (R&D Systems #924-MP-010) were tested at final concentrations of 1 nM, 0.25-0.4 nM, 2.5 nM and 0.2 nM, respectively. Target enzymes were incubated with inhibitor for two hours at 30° C. in reaction buffer (50 mM Tris-HCl pH 7.5, 150 mM NaCl, 5 mM CaCl2, 0.05% Brij-35) in a total volume of 90 μL using a white 96 well plate (Costar). Reactions contained 5 μL of small-scale sFab stock solution (average concentration of 500 nM) for single point inhibition analysis or a concentration series of sFab/IgG for IC50 Ki,app determinations. Commercially available anti-MMP-9 antibodies (Millipore mAb 13415 and R&D Systems polyclonal IgG #AB911) were tested by IC50 analyses using 100 nM and 500 nM as the highest inhibitor concentrations, respectively. An anti-MMP-2 antibody (R&D Systems polyclonal IgG #AF902) was similarly tested with 200 nM as the highest inhibitor concentration. Reactions were initiated by the addition of 10 μL of a 10× concentrated stock of substrate, Mca-Lys-Pro-Leu-Gly-Leu-Dap(Dnp)-Ala-Arg-NH2, (Bachem M-2350), at final concentration of 10 μM and monitored at 30° C. in a Molecular Devices' Gemini fluorescence plate reader. The excitation and emission wavelengths were set at 328 nm and 393 nm, respectively. Kinetic data were acquired by the increase in fluorescence, and initial rates for each condition were plotted against the total inhibitor concentration. Reactions were performed in duplicates and all data replicates were plotted in a single graph and fit to the following equation^1:
Where A=initial rate observed at each inhibitor concentration; Ao=initial rate observed in the absence of inhibitor; Ainh=initial rate observed for the enzyme inhibitor complex; Inh=concentration of inhibitor; E=total enzyme concentration (treated as a floated parameter); and Ki,app=apparent equilibrium inhibition constant.

T1 sequence (P33434 110-662): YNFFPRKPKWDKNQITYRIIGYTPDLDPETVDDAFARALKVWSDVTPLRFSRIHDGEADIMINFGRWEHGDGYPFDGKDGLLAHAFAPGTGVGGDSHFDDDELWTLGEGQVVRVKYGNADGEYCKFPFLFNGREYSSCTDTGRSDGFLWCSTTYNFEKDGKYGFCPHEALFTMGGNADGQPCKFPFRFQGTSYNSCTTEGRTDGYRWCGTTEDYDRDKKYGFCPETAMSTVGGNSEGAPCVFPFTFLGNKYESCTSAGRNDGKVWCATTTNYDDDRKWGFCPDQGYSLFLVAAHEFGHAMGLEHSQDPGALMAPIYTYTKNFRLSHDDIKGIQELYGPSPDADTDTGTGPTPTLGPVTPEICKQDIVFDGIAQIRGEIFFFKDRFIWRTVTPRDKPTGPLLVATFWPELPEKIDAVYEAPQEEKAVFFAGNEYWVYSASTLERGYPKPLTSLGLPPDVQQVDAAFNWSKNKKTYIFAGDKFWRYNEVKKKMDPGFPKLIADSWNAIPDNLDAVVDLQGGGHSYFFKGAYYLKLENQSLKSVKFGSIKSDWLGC

Molecule	Ki (medium-scale sFab) [nM]	Ki (small-scale sFab) [nM]
M0299-A12: affinity matured variant of M237-D02, sFab (antibody, V domains shown) VH: EVQLLESGGGLVQPGGSLRLSCAASGFTFSHYPMWWVRQAPGKGLEWVSYISSSGGGTFYADSVKGRFTISRDNSKNTLYLQMNSLRAEDTAVYYCAKDRAYGDYVGWNGFDYWGQGTLVTVSS VL: QDIQMTQSPATLSLSPGERATLSCRASQSISSFLAWYQQKPGQAPRLLIYDASYRATGIPARFSGSGSGTDFTLTISSLEPEDYAVYYCQQRGNWPITFGQGTRLEIK	30	30
M0276-F11: affinity matured variant of M237-D02, sFab (antibody, V domains shown) VH: EVQLLESGGGLVQPGGSLRLSCAASGFTFSWYDMWWVRQAPGKGLEWVSVIYSSGGPTFYADSVKGRFTISRDNSKNTLYLQMNSLRAEDTAVYYCAKDRAYGDYVGWNGFDYWGQGTLVTVSS VL: QDIQMTQSPATLSLSPGERATLSCRASQSISSFLAWYQQKPGQAPRLLIYDASYRATGIPARFSGSGSGTDFTLTISSLEPEDYAVYYCQQRGNWPITFGQGTRLEIK	3.7	3.7
M0273-A11: affinity matured variant of M237-D02, sFab (antibody, V domains shown) VH: EVQLLESGGGLVQPGGSLRLSCAASGFTFSRYDMWWVRQAPGKGLEWVSVISPSGGATFYADSVKGRFTISRDNSKNTLYLQMNSLRAEDTAVYYCAKDRAYGDYVGWNGFDYWGQGTLVTVSS VL: QDIQMTQSPATLSLSPGERATLSCRASQSISSFLAWYQQKPGQAPRLLIYDASYRATGIPARFSGSGSGTDFTLTISSLEPEDYAVYYCQQRGNWPITFGQGTRLEIK	32	32
M0272-H08: affinity matured variant of M237-D02, sFab (antibody, V domains shown) VH: EVQLLESGGGLVQPGGSLRLSCAASGFTFSAYDMWWVRQAPGKGLEWVSVIYPSGGTTFYADSVKGRFTISRDNSKNTLYLQMNSLRAEDTAVYYCAKDRAYGDYVGWNGFDYWGQGTLVTVSS VL: QDIQMTQSPATLSLSPGERATLSCRASQSISSFLAWYQQKPGQAPRLLIYDASYRATGIPARFSGSGSGTDFTLTISSLEPEDYAVYYCQQRGNWPITFGQGTRLEIK	46	46
M0307-F04: affinity matured variant of M237-D02, sFab (antibody, V domains shown) VH: EVQLLESGGGLVQPGGSLRLSCAASGFTFSLYDMWWVRQAPGKGLEWVSVIYSSGGYTGYADSVKGRFTISRDNSKNTLYLQMNSLRAEDTAVYYCAKDRAYGDYVGWNGFDYWGQGTLVTVSS VL: QDIQMTQSPATLSLSPGERATLSCRASQSISSFLAWYQQKPGQAPRLLIYDASYRATGIPARFSGSGSGTDFTLTISSLEPEDYAVYYCQQRGNWPITFGQGTRLEIK	2.2	2.2
M0301-D12: affinity matured variant of M237-D02, sFab (antibody, V domains shown) VH: EVQLLESGGGLVQPGGSLRLSCAASGFTFSMYDMWWVRQAPGKGLEWVSVIYSSGGYTSYADSVKGRFTISRDNSKNTLYLQMNSLRAEDTAVYYCAKDRAYGDYVGWNGFDYWGQGTLVTVSS VL: QDIQMTQSPATLSLSPGERATLSCRASQSISSFLAWYQQKPGQAPRLLIYDASYRATGIPARFSGSGSGTDFTLTISSLEPEDYAVYYCQQRGNWPITFGQGTRLEIK	25	25
M0273-C10: affinity matured variant of M237-D02, sFab (antibody, V domains shown) VH: EVQLLESGGGLVQPGGSLRLSCAASGFTFSFYPMWWVRQAPGKGLEWVSYIYPSGGATFYADSVKGRFTISRDNSKNTLYLQMNSLRAEDTAVYYCAKDRAYGDYVGWNGFDYWGQGTLVTVSS VL: QDIQMTQSPATLSLSPGERATLSCRASQSISSFLAWYQQKPGQAPRLLIYDASYRATGIPARFSGSGSGTDFTLTISSLEPEDYAVYYCQQRGNWPITFGQGTRLEIK	18	18
M0273-G07: affinity matured variant of M237-D02, sFab (antibody, V domains shown) VH: EVQLLESGGGLVQPGGSLRLSCAASGFTFSHYDMWWVRQAPGKGLEWVSVIYPSGGPTYYADSVKGRFTISRDNSKNTLYLQMNSLRAEDTAVYYCAKDRAYGDYVGWNGFDYWGQGTLVTVSS VL: QDIQMTQSPATLSLSPGERATLSCRASQSISSFLAWYQQKPGQAPRLLIYDASYRATGIPARFSGSGSGTDFTLTISSLEPEDYAVYYCQQRGNWPITFGQGTRLEIK	22	22
M0273-B10: affinity matured variant of M237-D02, sFab (antibody, V domains shown) VH: EVQLLESGGGLVQPGGSLRLSCAASGFTFSKYAMIWVRQAPGKGLEWVSWIPPSGGYTSYADSVKGRFTISRDNSKNTLYLQMNSLRAEDTAVYYCAKDRAYGDYVGWNGFDYWGQGTLVTVSS VL: QDIQMTQSPATLSLSPGERATLSCRASQSISSFLAWYQQKPGQAPRLLIYDASYRATGIPARFSGSGSGTDFTLTISSLEPEDYAVYYCQQRGNWPITFGQGTRLEIK	59	59
M0274-G08: affinity matured variant of M237-D02, sFab (antibody, V domains shown) VH: EVQLLESGGGLVQPGGSLRLSCAASGFTFSVYDMWWVRQAPGKGLEWVSVIYPSGGATYYADSVKGRFTISRDNSKNTLYLQMNSLRAEDTAVYYCAKDRAYGDYVGWNGFDYWGQGTLVTVSS VL: QDIQMTQSPATLSLSPGERATLSCRASQSISSFLAWYQQKPGQAPRLLIYDASYRATGIPARFSGSGSGTDFTLTISSLEPEDYAVYYCQQRGNWPITFGQGTRLEIK	2.7	2.7
M0256-D11: affinity matured variant of M237-D02, sFab (antibody, V domains shown) VH: EVQLLESGGGLVQPGGSLRLSCAASGFTFSHYDMWWVRQAPGKGLEWVSVIYSSGGPTFYADSVKGRFTISRDNSKNTLYLQMNSLRAEDTAVYYCAKDRAYGDYVGWNGFDYWGQGTLVTVSS VL: QDIQMTQSPATLSLSPGERATLSCRASQSISSFLAWYQQKPGQAPRLLIYDASYRATGIPARFSGSGSGTDFTLTISSLEPEDYAVYYCQQRGNWPITFGQGTRLEIK	4.2	4.2
M0275-D03: affinity matured variant of M237-D02, sFab (antibody, V domains shown) VH: EVQLLESGGGLVQPGGSLRLSCAASGFTFSQYDMWWVRQAPGKGLEWVSVIYPSGTTFYADSVKGRFTISRDNSKNTLYLQMNSLRAEDTAVYYCAKDRAYGDYVGWNGFDYWGQGTLVTVSS VL: QDIQMTQSPATLSLSPGERATLSCRASQSISSFLAWYQQKPGQAPRLLIYDASYRATGIPARFSGSGSGTDFTLTISSLEPEDYAVYYCQQRGNWPITFGQGTRLEIK	5.4	5.4
M0275-E12: affinity matured variant of M237-D02, sFab (antibody, V domains shown) VH: EVQLLESGGGLVQPGGSLRLSCAASGFTFSHYDMWWVRQAPGKGLEWVSVIYSSGGFTGYADSVKGRFTISRDNSKNTLYLQMNSLRAEDTAVYYCAKDRAYGDYVGWNGFDYWGQGTLVTVSS VL: QDIQMTQSPATLSLSPGERATLSCRASQSISSFLAWYQQKPGQAPRLLIYDASYRATGIPARFSGSGSGTDFTLTISSLEPEDYAVYYCQQRGNWPITFGQGTRLEIK	15	15
M0301-A09: affinity matured variant of M237-D02, sFab (antibody, V domains shown) VH: EVQLLESGGGLVQPGGSLRLSCAASGFTFSYYDMWWVRQAPGKGLEWVSVIYPSGGYTAYADSVKGRFTISRDNSKNTLYLQMNSLRAEDTAVYYCAKDRAYGDYVGWNGFDYWGQGTLVTVSS VL: QDIQMTQSPATLSLSPGERATLSCRASQSISSFLAWYQQKPGQAPRLLIYDASYRATGIPARFSGSGSGTDFTLTISSLEPEDYAVYYCQQRGNWPITFGQGTRLEIK	21	21
